{
  "source": "patent US20240139347A1",
  "about": "“COMPLEX, VASCULAR CONTRAST AGENT, X-RAY CONTRAST AGENT, METHOD FOR PRODUCING COMPLEX, AND IMAGING METHOD FOR CAPTURING STRUCTURAL CHANGE IN VESSEL” (TOHOKU UNIVERSITY, priority 2021, published 2024)",
  "origin": "cited, not measured here",
  "molecules": {"B1": {"name": "lactoferrin: lactoferrin (MW: 80 kDa), protein used in the complex of Example 1 (protein, UniProt P02788 20-710, looked up)", "Lactotransferrin": "GRRRSVQWCAVSQPEATKCFQWQRNMRKVRGPPVSCIKRDSPIQCIQAIAENRADAVTLDGGFIYEAGLAPYKLRPVAAEVYGTERQPRTHYYAVAVVKKGGSFQLNELQGLKSCHTGLRRTAGWNVPIGTLRPFLNWTGPPEPIEAAVARFFSASCVPGADKGQFPNLCRLCAGTGENKCAFSSQEPYFSYSGAFKCLRDGAGDVAFIRESTVFEDLSDEAERDEYELLCPDNTRKPVDKFKDCHLARVPSHAVVARSVNGKEDAIWNLLRQAQEKFGKDKSPKFQLFGSPSGQKDLLFKDSAIGFSRVPPRIDSGLYLGSGYFTAIQNLRKSEEEVAARRARVVWCAVGEQELRKCNQWSGLSEGSVTCSSASTTEDCIALVLKGEADAMSLDGGYVYTAGKCGLVPVLAENYKSQQSSDPDPNCVDRPVEGYLAVAVVRRSDTSLTWNSVKGKKSCHTAVDRTAGWNIPMGLLFNQTGSCKFDEYFSQSCAPGSDPRSNLCALCIGDEQGENKCVPNSNERYYGYTGAFRCLAENAGDVAFVKDVTVLQNTDGNNNEAWAKDLKLADFALLCLDGKRKPVTEARSCHLAMAPNHAVVSRMDKVERLKQVLLHQQAKFGRNGSDCPDKFCLFQSETKNLLFNDNTECLARLHGKTTYEKYLGPQYVAGITNLKKCSTSPLLEACEFLRK"}},
  "conditions": "Y. Nojima et al., Pharm. Res. 26 (2009)",
  "data": [
    {"molecule": "B1", "values": [
      {"measurement": "half-life in blood of lactoferrin alone", "value": "about 7.8 min"}
    ]}
  ]
}
